# Where a chain is given by its changes, count along the chain named. “And” between values parts separate entries of the source, which are not always exact repeats. Identical values can stand only once.
# B1: US28-4-7B1F3 (antibody, mouse IgG1, kappa)
# heavy: EVQLQQSGAELAKPGASVKMSCKASGYTFTNYWMHWVKQRPGQGLEWIGYVNPRTGYTEYNQKFKDKATLTADKSSRTAYMQLSSLTSEDSAVYSCARILNGTGFAYWGQGTLVTVSAAKTTPPSVYPLAPGSAAQTNSMVTLGCLVKGYFPEPVTVTWNSGSLSSGVHTFPAVLQSDLYTLSSSVTVPSSTWPSETVTCNVAHPASSTKVDKKIVPRDCGCKPCICTVPEVSSVFIFPPKPKDVLTITLTPKVTCVVVDISKDDPEVQFSWFVDDVEVHTAQTQPREEQFNSTFRSVSELPIMHQDWLNGKEFKCRVNSAAFPAPIEKTISKTKGRPKAPQVYTIPPPKEQMAKDKVSLTCMITDFFPEDITVEWQWNGQPAENYKNTQPIMDTDGSYFIYSKLNVQKSNWEAGNTFTCSVLHEGLHNHHTEKSLSHSPGK
# light: DIVLTQSPSSLTVSVGEKFTMSCKSSQSLLYSSNQKNYLAWYQQKPGQSPKLLIYWASTRESGVPDRFTGSGSGTDFTLAISSVKPEDLAIYYCQQYYSFPLTFGAGTKLEIKRADAAPTVSIFPPSSEQLTSGGASVVCFLNNFYPKDINVKWKIDGSERQNGVLNSWTDQDSKDSTYSMSSTLTLTKDEYERHNSYTCEATHKTSTSPIVKSFNRNEC
# B2: US28-14-4E4-1E8 (antibody, mouse IgG1, kappa)
# heavy: not shown
# light: QIVLSQSPTIMSASPGEKVTMTCSASSSVSYMHWYQQKSGTSPKRWIYDSSKLASGVPARFSGSGSGTSYSLTISSMEAEDAATYYCQQWTSNPPITFGAGTKLELKRADAAPTVSIFPPSSEQLTSGGASVVCFLNNFYPKDINVKWKIDGSERQNGVLNSWTDQDSKDSTYSMSSTLTLTKDEYERHNSYTCEATHKTSTSPIVKSFNRNEC
# B3: US28-13-1H3-1A10 (antibody, mouse IgG1, kappa)
# heavy: EVKLVESGGVLVKPGGSLKFSCAASGFTLSSHALSWVRQTPEKRLEWVASISSRGRTYYPDSVKGRFTVSRDNARNILYLQVSSLRSEDTAMYYCTRGGTHYSYGNGFDFWGQGTTLTVSSAKTTPPSVYPLAPGSAAQTNSMVTLGCLVKGYFPEPVTVTWNSGSLSSGVHTFPAVLQSDLYTLSSSVTVPSSTWPSETVTCNVAHPASSTKVDKKIVPRDCGCKPCICTVPEVSSVFIFPPKPKDVLTITLTPKVTCVVVDISKDDPEVQFSWFVDDVEVHTAQTQPREEQFNSTFRSVSELPIMHQDWLNGKEFKCRVNSAAFPAPIEKTISKTKGRPKAPQVYTIPPPKEQMAKDKVSLTCMITDFFPEDITVEWQWNGQPAENYKNTQPIMDTDGSYFIYSKLNVQKSNWEAGNTFTCSVLHEGLHNHHTEKSLSHSPGK
# light: B2 light with S5T, T9A, A25V, S50T, S76T, T91S, S92N
# B4: US28-13-1C10-1C10 (antibody, mouse IgG1, kappa)
# heavy: B3 heavy with L29F
# light: B2 light with S5T, T9A, A25V, S50T, S76T, T91S, S92N
# B5: US28-13-1C10-1G9 (antibody, mouse IgG1, kappa)
# heavy: not shown
# light: B2 light with S5T, T9A, S50T, T91S, I96L
# B6: US28-13-5G6-1D3 (antibody)
# heavy: EVKLVESGGGLVQPGGSLRLACATSGFTFTDYYMSWVRQPPGKALEWLGFIRSKANGYTTEYSASVKGRFTISRDNSQSILYLQMNTLRSEDSATYYCARDERRTAWLAYWGQGTLVTVSAAKTTPPSVYPLAPGSAAQTNSMVTLGCLVKGYFPEPVTVTWNSGSLSSGVHTFPAVLQSDLYTLSSSVTVPSSTWPSETVTCNVAHPASSTKVDKKIVPRDCGCKPCICTVPEVSSVFIFPPKPKDVLTITLTPKVTCVVVDISKDDPEVQFSWFVDDVEVHTAQTQPREEQFNSTFRSVSELPIMHQDWLNGKEFKCRVNSAAFPAPIEKTISKTKGRPKAPQVYTIPPPKEQMAKDKVSLTCMITDFFPEDITVEWQWNGQPAENYKNTQPIMDTDGSYFIYSKLNVQKSNWEAGNTFTCSVLHEGLHNHHTEKSLSHSPGK
# light: DVLMTQTPLSLPVSLGDQASISCRSSQSIVHSNGNTYLDWYLQKPGQSPKLLIYKVSNRFSGVPDRFSGSGSGTDFTLKISRVEAEDLGVYYCFQGSHVPTWTFGGGTKLEIKRADAAPTVSIFPPSSEQLTSGGASVVCFLNNFYPKDINVKWKIDGSERQNGVLNSWTDQDSKDSTYSMSSTLTLTKDEYERHNSYTCEATHKTSTSPIVKSFNRNEC
# What was measured:
# [1] = target: Peptide 3 (human cytomegalovirus); assay: HuProt array, 0.1 µg/ml
# [2] = target: Peptide-N-BSA (human cytomegalovirus); assay: ELISA, Peptide-N-BSA coated
# [3] = target: Bio-Peptide-2 (human cytomegalovirus (4D variant)); assay: ELISA, Bio-Peptide-2 coated
# [4] = target: Bio-Peptide-2 (human cytomegalovirus (4D variant)); assay: ELISA (FIG. 5)
binder,measurement,setting,value
B1,F635,[1],50000 AU
same,S Score,[1],116
same,Z Score,[1],145
same,absorbance,[2],2.8
B2,absorbance,[3],2.87
B3,absorbance,[3],2.84
B4,absorbance,[3],3.03
B5,absorbance,[3],3.06
B6,fold binding over BSA control,[4],27 fold and 28 fold

# Reference: US20250296984A1, “THERAPEUTIC AND DIAGNOSTIC AGENTS AND USES THEREOF” (priority 2022, published 2025)
